B2: His6-T7-HSV tagged full-length V0c-subunit (natural protein, rat, UniProt P63081 1-155, looked up)
chain: MADIKNNPEYSSFFGVMGASSAMVFSAMGAAYGTAKSGTGIAAMSVMRPELIMKSIIPVVMAGIIAIYGLVVAVLIANSLTDGITLYRSFLQLGAGLSVGLSGLAAGFAIGIVGDAGVRGTAQQPRLFVGMILILIFAEVLGLYGLIVALILSTK
notes: V-ATPase V0 sector subunit c (V0c), full length; also called HSV-V0c; 6His-V0c; source: E. coli OverExpress C43(DE3), membranes solubilized in 2% FosCholine-12, purified (Ni-NTA)
B3: Complexin1-GST (natural protein, rat, UniProt P63041 1-134, looked up)
chain: MEFVMKQALGGATKDMGKMLGGDEEKDPDAAKKEEERQEALRQAEEERKAKYAKMEAEREVMRQGIRDKYGIKKKEEREAEAQAAMEANSEGSLTRPKKAIPPGCGDEPEEEDESILDTVIKYLPGPLQDMFKK
notes: Legends call it GST-complexin although GST stands downstream of complexin in the construct; also called GST-complexin; immobilized complexin; source: E. coli BL21, purified; not shown: GST, C-terminal, kept
B4: Full-length V0c-L3.4s mutant (V0c with scrambled loop 3.4) (natural protein, rat, UniProt P63081 1-155, looked up)
chain: MADIKNNPEYSSFFGVMGASSAMVFSAMGAAYGTAKSGTGIAAMSVMRPELIMKSIIPVVMAGIIAIYGLVVAVLIANSLTDGITLYRSFLQLGAGLSVGLSGLAAGFAIGIVGDAGQATVQPLGRRFVGMILILIFAEVLGLYGLIVALILSTK
notes: Cloned in pET28 (EcoR1/Sal1); source: E. coli OverExpress C43(DE3), purified (Ni-NTA)

Assays:
Conditions in all cases: both partners purified
Complexin1-GST = molecular target: B3; test: SPR; competition: V0c 100 nM preincubated or not with L1.2 or L3.4 peptides (10 µM) and injected on immobilized GST-complexin; 25 °C
GST-V0d1 [1] = molecular target: T1, GST-V0d1 (rat, UniProt Q5M7T6 1-351); test: SPR; competition: V0c 50 nM injected over immobilized GST-V0d1 in the presence of an excess of GST or GST-complexin, or of L1.2 or L3.4 peptides; GST flow cell subtracted
T1 construct: rat V-ATPase V0 sector subunit d1 (V0d1), amplified from an adult rat brain cDNA library and inserted EcoR1/Sal1 into pGEX-5x-1; the forward primer begins at the codon after the first methionine (SFFPEL), the reverse primer ends at the stop codon; also called immobilized V0d1; source: E. coli BL21, purified (Glutathione-Sepharose)

GST-V0d1 [2] = molecular target: T1, GST-V0d1; test: ELISA; V0c, VAMP2, t-SNARE, complexin, trimeric SNARE complex with or without complexin immobilized; GST-V0d1 or GST 50 nM; detected with anti-GST; GST binding subtracted
[3] = molecular target: B4; test: SPR; Complexin1-GST and GST amine-coupled on the chip; V0c, V0c L1.2s or V0c L3.4s 50 nM injected for 2 min; 25 °C, HBS with or without 0.2% CHAPS; GST signal subtracted
[4] = molecular target: B2; test: as above
GST-V0d1 [5] = molecular target: T1, GST-V0d1; test: SPR; GST-V0d1 and GST amine-coupled on consecutive flow cells; V0c (50 nM, with or without 2 µM soluble GST-V0d1), V0c L1.2s or V0c L3.4s injected; 25 °C; GST signal subtracted
[6] = molecular target: B2; test: ELISA; His-tagged complexin immobilized (1 µg/well); V0c 20 nM with or without VAMP2 100 nM, overnight 4 °C in 50 mM Tris-HCl pH 7.5, 150 mM NaCl, 3% BSA, 0.1% Triton X-100; detected with anti-HSV

T1 sequence (Q5M7T6 entry or part of it): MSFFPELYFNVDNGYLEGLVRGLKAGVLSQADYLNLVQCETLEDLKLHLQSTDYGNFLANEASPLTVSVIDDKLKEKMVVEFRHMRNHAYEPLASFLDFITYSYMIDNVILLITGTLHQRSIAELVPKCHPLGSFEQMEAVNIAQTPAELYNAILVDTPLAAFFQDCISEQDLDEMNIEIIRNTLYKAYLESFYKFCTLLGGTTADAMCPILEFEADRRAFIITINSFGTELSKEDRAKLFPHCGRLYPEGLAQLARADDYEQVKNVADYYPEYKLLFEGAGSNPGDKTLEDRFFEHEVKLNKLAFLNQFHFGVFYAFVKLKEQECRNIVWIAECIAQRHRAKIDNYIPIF

B1: V0c L1.2 peptide (aa 35-KSGTGIAAMSVMRPELIMKS-54) (peptide)
peptide: KSGTGIAAMSVMRPELIMKS
notes: V0c cytosolic loop 1.2; printed as aa 35-54; also called loop 1.2 peptide; free L1.2 peptide; source: synthetic peptide (Genecust)
binding result (Complexin1-GST): binds
binding result (GST-V0d1 [1]): binds

B2
binding result (GST-V0d1 [2]): binds

B3
binding result [3]: binds
binding result [4]: binds

B4
binding result (GST-V0d1 [5]): binds

B5: Complexin1-His (natural protein, rat, UniProt P63041 1-134, looked up)
chain: MEFVMKQALGGATKDMGKMLGGDEEKDPDAAKKEEERQEALRQAEEERKAKYAKMEAEREVMRQGIRDKYGIKKKEEREAEAQAAMEANSEGSLTRPKKAIPPGCGDEPEEEDESILDTVIKYLPGPLQDMFKK
notes: also called His-tagged complexin; source: E. coli BL21, purified
binding result [6]: binds

Reference: publication PMC10001230, “A Role for the V0 Sector of the V-ATPase in Neuroexocytosis: Exogenous V0d Blocks Complexin and SNARE Interactions with V0c” (Cells, 2023)
